Results: patent publication US20210355194A1 (TWIST BIOSCIENCE, published 2021)
Like-named read-outs stand apart in the source and are kept apart here.

Key:
SARS-CoV-2 S1 protein [1] = target: T1, SARS-CoV-2 S1 protein (SARS-CoV-2, UniProt P0DTC2 16-685); test: Carterra SPR, Fc capture, S1
T1 construct: also called SARS-CoV-2 Spike Glycoprotein S1; S1 (subunit 1)

SARS-CoV-2 S1 protein [2] = target: T1, SARS-CoV-2 S1 protein; test: phage ELISA screen on S1, mean
SARS-CoV-2 S1 protein [3] = target: T1, SARS-CoV-2 S1 protein; test: inhibitor ELISA, competitor ACE2
SARS-CoV-2 S1 protein [4] = target: T1, SARS-CoV-2 S1 protein; test: Carterra SPR, direct capture (DC), S1
SARS-CoV-2 S1 protein [5] = target: T1, SARS-CoV-2 S1 protein; test: ELISA binding titration on coated antigen
SARS-CoV-2 S1 protein [6] = target: T1, SARS-CoV-2 S1 protein; test: Carterra SPR, DB format, S1
SARS-CoV-2 S1 protein [7] = target: T1, SARS-CoV-2 S1 protein; test: phage ELISA screen on S1, mean; remark: listed apart in the source
SARS-CoV-2 S1 protein [8] = target: T1, SARS-CoV-2 S1 protein; test: inhibitor ELISA, competitor ACE2; remark: listed apart in the source
SARS-CoV-2 S1 protein [9] = target: T1, SARS-CoV-2 S1 protein
SARS-CoV-2 S1 protein [10] = target: T1, SARS-CoV-2 S1 protein; remark: listed apart in the source

Row | Binder | Kd (SARS-CoV-2 S1 protein [1]) | ELISA(Avg) (SARS-CoV-2 S1 protein [2]) | IC50 (SARS-CoV-2 S1 protein [3]) | Kd (SARS-CoV-2 S1 protein [4]) | EC50 (SARS-CoV-2 S1 protein [5]) | Kd (SARS-CoV-2 S1 protein [6]) | ELISA(Avg) (SARS-CoV-2 S1 protein [7]) | IC50 (SARS-CoV-2 S1 protein [8]) | IC50 (SARS-CoV-2 S1 protein [9]) | EC50 (SARS-CoV-2 S1 protein [10])
1 | 2-8 (antibody, V domains shown, also called variant 2-8) VH: EVQLLESGGGLVQPGGSLRLSCAASGFTFSDFAMAWVRQAPGKGLEWVSAISGSGDITYYADSVKGRFTISRDNSKNTLYLQMNSLRAEDTAVYYCAREADGLHSPWHFDLWGQGTLVTVSS VL: DIQMTQSPSSLSASVGDRVTITCRASQSIDTYLNWYQQKPGKAPKLLIYAASALASGVPSRFSGSGSGTDFTLTISSLQPEDFATYYCQQSYSAPPYTFGQGTKVEIK | 52.8 nM | 32.4 fold over background | 12.2 nM | 33.4 nM | 0.08 nM |  |  |  |  | 
2 | 2-2 (antibody, V domains shown, also called variant 2-2) VH: EVQLLESGGGLVQPGGSLRLSCAASGFTFSRHAMNWVRQAPGKGLEWVSGISGSGDETYYADSVKGRFTISRDNSKNTLYLQMNSLRAEDTAVYYCARDLPASYYDSSGYYWHNGMDVWGQGTLVTVSS VL: DIQMTQSPSSLSASVGDRVTITCRASQTINTYLNWYQQKPGKAPKLLIYSASTLQSGVPSRFSGSGSGTDFTLTISSLQPEDFATYYCQQSYSTFTFGQGTKVEIK | 58.3 nM | 23.4 fold over background | 3.6 nM |  | 0.612 nM | 11.7 nM |  |  |  | 
3 | 2-16 (antibody, V domains shown, also called variant 2-16) VH: EVQLLESGGGLVQPGGSLRLSCAASGFTFSSYAMSWVRQAPGKGLEWVSVISGSGGSTYYADSVKGRFTISRDNSKNTLYLQMNSLRAEDTAVYYCAREGYRDYLWYFDLWGQGTLVTVSS VL: DIQMTQSPSSLSASVGDRVTITCTGTSSDVGSYDLVSWYQQKPGKAPKLLIYEGNKRPSGVPSRFSGSGSGTDFTLTISSLQPEDFATYYCCSYAGSSVVFGQGTKVEIK |  | 7.1 fold over background |  |  |  |  | 7.1 fold over background | 433 nM |  | 
4 | 2-9 (antibody, V domains shown, also called variant 2-9) VH: EVQLLESGGGLVQPGGSLRLSCAASGFTFPRYAMSWVRQAPGKGLEWVSTISGSGSTTYYADSVKGRFTISRDNSKNTLYLQMNSLRAEDTAVYYCARLIDAFDIWGQGTLVTVSS VL: DIQMTQSPSSLSASVGDRVTITCRASQRIGTYLNWYQQKPGKAPKLLIYAASNLEGGVPSRFSGSGSGTDFTLTISSLQPEDFATYYCQQNYSTTWTFGQGTKVEIK |  |  |  |  |  |  |  |  | 23.2 nM | 12.6 nM
